Patent publication US20040180051A1 (published 2004)
Each block holds one binder with its values, some of them ahead of it.

Assays:
[1] = molecular target: T1, human tissue factor (human TF) on human bladder carcinoma cells J82 (human, UniProt P13726 33-295); experiment: cell ELISA on fixed J82 cells; reference antibody (CHO DG44 expressed)
T1 construct: whole, on cells; Target of the cell ELISA; also called the antigen
Experimental: (§1) Cell ELISA plates for measurement of antigen binding were prepared as follows. Cells used were human bladder carcinoma cells J82 (ATCC HTB-1). To 60 wells of a 96-well cell culture plate, 1×10⁵ J82 cells were inoculated. This was cultured (RPMI1640 medium containing 10% fetal bovine serum (GIBCO)) for one day in a CO₂ incubator to allow the cells to be attached thereto. After discarding the culture liquid, each well was washed twice with 300 μl PBS. 100 μl of PBS containing 4% paraformaldehyde (hereinafter referred to as PFA/PBS) was added to each well, and placed on ice for 10 minutes to immobilize the cells.

[2] = molecular target: T1, human tissue factor (human TF) on human …; experiment: cell ELISA on fixed J82 cells
Experimental: as §1

binding result [1]: binds
B1: chimeric ATR-5 antibody (antibody, V domains shown)
VH: EVQLQQSGTNLVRPGALVKLSCKGSGFNIKDYYMHWVKQRPEQGLEWIGGNDPANGHSMYDPKFQGKASITADTSSNTAYLQLSSLTSEDTAVYFCARDSGYAMDYWGQGTSVTVSS
VL: DIKMTQSPSSMYASLGERVTITCKASQDIKSFLSWYQQKPWKSPKTLIYYATSLADGVPSRFSGSGSGQDYSLTINNLESDDTATYYCLQHGESPYTFGGGTKLEIK
notes: Mouse V regions on human C regions; also called ch-ch; chimeric antibody

binding result [2]: binds
B2: humanized H chain version “c” combined with a chimeric L chain (antibody, V domains shown)
VH: QVQLLESGAVLARPGTSVKISCKASGFNIKDYYMHWVKQRPGQGLEWIGGNDPANGHSMYDPKFQGRVTMLVDTSKNQFSLRLSSVTAADTAVYYCARDSGYAMDYWGQGTLVTVSS
VL: B1 VL
notes: expressed in COS-7; also called c-ch

binding result [2]: binds
B3: humanized H chain version “j” combined with a chimeric L chain (antibody, V domains shown)
VH: QVQLLESGAVLARPGTSVKISCKASGFNIKDYYMHWVKQRPGQGLEWIGGNDPANGHSMYDPKFQGRVTFTADTSANTAYMELRSLRSADTAVYYCARDSGYAMDYWGQGTLVTVSS
VL: B1 VL
notes: expressed in COS-7; also called j-ch

binding result [2]: binds
B4: humanized H chain version “a” combined with the humanized L chain version “a” (antibody, V domains shown)
VH: QVQLLESGAVLARPGTSVKISCKASGFNIKDYYMHWVKQRPGQGLEWIGGNDPANGHSMYDPKFQGRAKLTAATSASIAYLEFSSLTNEDSAVYYCARDSGYAMDYWGQGTLVTVSS
VL: DIQMTQSPSSLSASVGDRVTITCKASQDIKSFLSWYQQKPGKAPKLLIYYATSLADGVPSRFSGSGSGTDFTLTISSLQPEDFATYYCLQHGESPYTFGGGTKVEIK
notes: expressed in COS-7; also called a-a
